Assay results published in doi:10.1101/2021.10.11.463953.

Molecular target: Acinetobacter sp. Ver3 iron superoxide dismutase (^AV3SodB) (Acinetobacter sp. Ver3)
Test: crystal structure

Substance: Acinetobacter sp. Ver3 iron superoxide dismutase (^AV3SodB) (enzyme)
- stoichiometry N: 2
